Results taken from publication doi:10.1101/824458 (bioRxiv, 2019).

B1: viperin-ΔN50 (residues 50-361), recombinant, C-terminal His6-tagged, iron-sulfur cluster reconstituted (domain or fragment, human, UniProt Q8WXG1 50-361, looked up)
chain: QLVLRGPDETKEEEEDPPLPTTPTSVNYHFTRQCNYKCGFCFHTAKTSFVLPLEEAKRGLLLLKEAGMEKINFSGGEPFLQDRGEYLGKLVRFCKVELRLPSVSIVSNGSLIRERWFQNYGEYLDILAISCDSFDEEVNVLIGRGQGKKNHVENLQKLRRWCRDYRVAFKINSVINRFNVEEDMTEQIKALNPVRWKVFQCLLIEGENCGEDALREAERFVIGDEEFERFLERHKEVSCLVPESNQKMKDSYLILDEYMRFLNCRKGRKDPSKSILDVGVEEAIKFSGFDEKMFLKRGGKYIWSKADLKLDW
B2: VAP-33-ΔC20 (recombinant human VAP-33 protein, residues 1-227) (domain or fragment, UniProt Q9P0L0 1-227, looked up)
chain: MASASGAMAKHEQILVLDPPTDLKFKGPFTDVVTTNLKLRNPSDRKVCFKVKTTAPRRYCVRPNSGIIDPGSTVTVSVMLQPFDYDPNEKSKHKFMVQTIFAPPNTSDMEAVWKEAKPDELMDSKLRCVFEMPNENDKLNDMEPSKAVPLNASKQDGPMPKPHSVSLNDTETRKLMEECKRLQGEMMKLSEENRHLRDEGLRLRKVAHSDKPGSTSTASFRDNVTSP

How the values were obtained:
[1] = biological target: NS5A-ΔN39 (residues 39-447), recombinant, lacking the membrane-binding amphipathic helix (hepatitis C virus) (UniProt Q9WMX2); test: cross-linking
cross-linking = biological target: the molecule itself; test: cross-linking

Row | Molecule | stoichiometry N [1] | stoichiometry N (cross-linking)
1 | NS5A-ΔN39 (residues 39-447), recombinant, lacking the membrane-binding amphipathic helix (from UniProt Q9WMX2 40-448) (domain or fragment) | 2 | 
2 | B1 |  | 2
3 | B2 |  | 2
